Reference: patent publication US20240083999A1 (published 2024)
Like-named read-outs stand apart in the source and are kept apart here. Values belong to the binder of their own block, whether it stands above or below them.

Tests used:
[1] = biological target: T1, human interleukin 6 (hIL-6) (UniProt P05231 30-212); experiment: ELISA
[2] = biological target: T1, human interleukin 6 (hIL-6); experiment: ELISA; remark: listed apart in the source

T1 sequence (P05231 30-212): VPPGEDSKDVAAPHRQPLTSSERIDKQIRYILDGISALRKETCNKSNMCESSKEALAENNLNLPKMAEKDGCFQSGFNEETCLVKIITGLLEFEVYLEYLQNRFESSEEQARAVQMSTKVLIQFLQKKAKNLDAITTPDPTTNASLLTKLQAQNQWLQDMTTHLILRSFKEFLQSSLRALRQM

B2: hIL-6-binding VHH JYK-F12 (Trx/JYK-F12/E) (VHH)
VHH: QVQLAETGGGSVQAGGSLTLSCAASGRTFSSRAMGWFRQAPGKEREFVAVISWTGSPYYTDSVKGRFTISRDDAKNTVYLQMNSLKPEDTAVYYCAATSEHVMLVVTTRGGYDYWGQGTQVTVSS
- EC50 [1]: 14.4 nM

B3: JYK-D12/JYK-D12 homodimer (VHH)
chain: QVQLVESGGGLVQPGGSLGLSCAASGFTLAYYGIGWFRQAPGKEREGVACISSSDLSTYYADSVKGRFTISRDNAKDTVYLQMNSLKPEDTAVYYCAAGTWDLKFGYSRSNCVRSYEYDYWGQGTQVTVSSGGGGSGGGGSGGGGSQVQLVESGGGLVQPGGSLGLSCAASGFTLAYYGIGWFRQAPGKEREGVACISSSDLSTYYADSVKGRFTISRDNAKDTVYLQMNSLKPEDTAVYYCAAGTWDLKFGYSRSNCVRSYEYDYWGQGTQVTVSS
- EC50 [2]: 0.0842 nM

B5: hIL-6-binding VHH JYK-A9 (Trx/JYK-A9/E) (VHH)
VHH: QVQLVESGGGLVQAGDSLTLSCAASGRPFSSFAMGWFRQAPGKEREFVAAITWSRGTTHYADSVKGRFTISGDNAKNTVFLQMNSLKPEDTAVYYCAAADGWKVVSTASPAYDYWGQGTQVTVSS
- EC50 [1]: 27.7 nM

The remaining binders from weak to strong by EC50 [1], led by results:

- EC50 [1]: 0.811 nM
B1: hIL-6-binding VHH JYK-H9 (Trx/JYK-H9/E) (VHH)
VHH: QLQLVETGGGLVQPGGSLRLSCAASGFTLDYYAIGWFRQAPGKEREGVSCLSSSDRSTYYVDSVKGRFTISRDDDKNTAYLQMNSLKPEDTATYYCAAGTWDLKWGYNISACVGSYEYDYWGQGTQVTVSS

- EC50 [1]: 0.795 nM
B6: hIL-6-binding VHH JYK-A1 (Trx/JYK-A1/E) (VHH)
VHH: QLQLAETGGGLVQPGGSLRLSCAASGFTLDYYAVGWFRQAPGKEREGISCISSSDLKTYYADSVKGRFTISRDYAKSTVSLQMNSLKPEDTGVYYCAAGTWDLKFGYNISACVGSYEYDYWDQGTQVTVSS

- EC50 [1]: 0.324 nM
B4: hIL-6-binding VHH JYK-D12 (Trx/JYK-D12/E) (VHH)
VHH: QLQLVESGGGLVQPGGSLGLSCAASGFTLAYYGIGWFRQAPGKEREGVACISSSDLSTYYADSVKGRFTISRDNAKDTVYLQMNSLKPEDTAVYYCAAGTWDLKFGYSRSNCVRSYEYDYWGQGTQVTVSS
